The values below come from article PMC6393304 (Nucleic Acids Research, 2018).

The series concerns the molecule itself. As to the kind of experiment: crystal structure.

B1: C-terminal bZIP domain of human C/EBPβ (residues 269–344), wild type (domain or fragment)
chain: HMKHSDEYKIRRERNNIAVRKSRDKAKMRNLETQHKVLELTAENERLQKKVEQLSRELSTLRNLFKQLPEPLLASSGH
B1: the binding result is recorded as “binds”.

B2: C-terminal bZIP domain of human C/EBPβ (residues 269–344), V285A variant (domain or fragment)
chain: HMKHSDEYKIRRERNNIAARKSRDKAKMRNLETQHKVLELTAENERLQKKVEQLSRELSTLRNLFKQLPEPLLASSGH
On to B2, for which the binding result was “binds”.
